Results reported in PMC8153049 (ACS chemical biology, 2020).
Values belong to the molecule of their own block, whether it stands above or below them.

Columns and labels:
Experiment in all cases: steady-state kinetics, HPLC of amide product
Assay type in all cases: biochemical, Streptomyces sp. CB02304
Nc1c(O)ccc(C(=O)O)c1O = conditions: 16 at 250 μM
Nc1c(O)ccc(C(=O)S)c1O = conditions: 16 at 250 μM, 9 varied 25-1500 μM, 50 mM MOPS pH 6.5, 30 °C
PtmC^t = PtmC^t (Streptomyces platensis, UniProt D8L2W0); conditions: 8 at 750 μM (partial saturation), 16 varied 10-200 μM; 50 mM MOPS pH 6.5
PtmC^t, sequence (D8L2W0 1-279 limits assumed): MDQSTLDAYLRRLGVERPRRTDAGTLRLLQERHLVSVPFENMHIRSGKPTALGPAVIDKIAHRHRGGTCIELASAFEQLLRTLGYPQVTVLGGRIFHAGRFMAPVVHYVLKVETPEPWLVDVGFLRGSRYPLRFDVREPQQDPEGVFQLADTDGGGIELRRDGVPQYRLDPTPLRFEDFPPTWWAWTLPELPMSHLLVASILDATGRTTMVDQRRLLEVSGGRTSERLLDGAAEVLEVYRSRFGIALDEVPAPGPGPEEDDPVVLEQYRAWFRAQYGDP

[1] = 8 varied 25-1500 μM, 50 mM MOPS pH 6.5, 30 °C
[2] = 8 varied 100-1000 μM, 50 mM MOPS pH 6.5

Molecule: PtmC (Streptomyces platensis)
Km (Nc1c(O)ccc(C(=O)O)c1O; [1]): 372 ± 49 µM
kcat (Nc1c(O)ccc(C(=O)O)c1O; [1]): 1.54 ± 0.075 s⁻¹
Km (Nc1c(O)ccc(C(=O)S)c1O): 142 ± 54 µM
kcat (Nc1c(O)ccc(C(=O)S)c1O): 4.7 ± 0.067 s⁻¹

Km (PtmC^t): 23.7 ± 6.1 µM
Molecule: CC(C)(COP(=O)(O)OP(=O)(O)OC[C@H]1O[C@@H](n2cnc3c(N)ncnc32)[C@H](O)[C@@H]1OP(=O)(O)O)[C@@H](O)C(=O)NCCC(=O)NCCSC(=O)CC[C@]1(C)C(=O)C=C[C@]23C[C@H]4C[C@H](O[C@@]4(C)C2)[C@H]31 [compound 16, platensicyl-CoA]

Molecule: PtmC^t (Streptomyces platensis)
Km (Nc1c(O)ccc(C(=O)O)c1O; [2]): 375 ± 119 µM
kcat (Nc1c(O)ccc(C(=O)O)c1O; [2]): 0.318 ± 0.0417 s⁻¹
